Where two headings read alike, the source gives them in different places.

Test [1] deals with T1, Recombinant Human IL-17A, Sino Biological, 12047-HNAS (human, UniProt Q16552 24-155).
T1 construct: range 24-155; Bought recombinant protein; also called huIL-17A
The experiment in a line: indirect ELISA, human IL-17A coated.
Description: (§1) Human IL-17A was formulated into a 1 μg/ml coating solution with CBS, and added to the ELISA plate at 50 μL/well, and the plate was coated at 2 to 8° C. for 12 hours or longer. The residue coating solution was discarded, 3% milk was added, 200 μL per well, and the plate was blocked at room temperature for 1 hour. Each well was washed with not less than 200 μL of PBST, and the hybridoma supernatant was diluted to 100 μg/ml, and was 10-fold diluted for 10 gradients, and added to the plate at 100 μL/well. […] After incubating for 1 hour at room temperature, each well was added with not less than 200 μL of PBST and washed 4 times, and patted to dryness. TMB development solution was added at 100 μL per well. After reacting for 5 minutes at room temperature, the reaction was quenched by adding 2M H₂SO₄ at 50 μL/well. After the reaction was quenched, the ELISA plate was placed on a microplate reader, and the absorbance OD450 value was read at a wavelength of 450 nm.

In test [2] the target is T2, Recombinant Mouse IL-17A, Sino Biological, PBV10159R-010 (mouse, UniProt Q62386 26-158).
T2 construct: also called murine IL-17A
T2 sequence (looked up): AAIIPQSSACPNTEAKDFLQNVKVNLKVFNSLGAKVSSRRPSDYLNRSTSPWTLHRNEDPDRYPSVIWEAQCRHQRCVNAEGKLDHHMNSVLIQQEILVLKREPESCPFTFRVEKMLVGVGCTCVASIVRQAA
Kind of test: indirect ELISA, mouse IL-17A coated. On the technique in general: ELISA stands for enzyme-linked immunosorbent assay.
Description: as §1

Test [3] deals with T1, Recombinant Human IL-17A, Sino …. Kind of test: indirect ELISA, human IL-17A coated, hybridoma supernatant.
Description: as §1
For test [4], the target named is T3, Recombinant Rhesus IL-17A, Sino Biological, 90306-KNAB (Rhesus, UniProt F6T3G5 24-155).
T3 construct: also called macaque IL-17A
T3 sequence (F6T3G5 entry or part of it): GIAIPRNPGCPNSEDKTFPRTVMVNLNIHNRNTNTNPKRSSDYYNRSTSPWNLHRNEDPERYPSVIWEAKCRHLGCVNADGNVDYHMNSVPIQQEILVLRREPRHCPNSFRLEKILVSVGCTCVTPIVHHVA
Kind of test: indirect ELISA, Rhesus IL-17A coated.

Test [5] addresses T1, Recombinant Human IL-17A, Sino …. The experiment in a line: indirect ELISA, human IL-17A coated. This is another data set of the same source.
Description: as §1
Test [6] has the same target. The experiment in a line: indirect ELISA, human IL-17A coated. The source holds these as a separate data set.
Description: as §1
Test [7] has the same target. Kind of test: indirect ELISA, human IL-17A coated. The source holds these as a separate data set.
Test [8] shares this target. Kind of test: cell-based or functional assay.
Test [9] has as its target T4, Recombinant rat IL-17A, ABGENT, PBV10154r (rat, UniProt Q61453 18-150, limits assumed).
T4 sequence (looked up): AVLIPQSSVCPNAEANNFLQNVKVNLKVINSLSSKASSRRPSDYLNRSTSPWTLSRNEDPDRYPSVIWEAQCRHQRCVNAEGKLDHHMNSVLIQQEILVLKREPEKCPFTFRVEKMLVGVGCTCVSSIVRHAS
Kind of test: indirect ELISA, rat IL-17A coated.

Test [10] deals with T1, Recombinant Human IL-17A, Sino …. Kind of test: cell-based or functional assay. This is another data set of the same source.
Test [11] has the same target. The experiment in a line: indirect ELISA, human IL-17A coated. This is another data set of the same source.
Description: as §1
Test [12] has the same target. The experiment in a line: SPR (Biacore), antibody captured by anti-human antibody on the chip, IL-17A as analyte, 1:1 model.
Description: In this example, the antigen-antibody binding kinetics and affinity were determined using BIACORE method.
Human Antibody Capture Antiboy was amino-coupled immobilized on the Sereis S Sensor Chip CMS chip using Amine Coupling Kit, anti-Human Capture-CMS chip. The chip was placed at room temperature for 20-30 mins, and loaded into the instrument. The antigen was diluted with equilibration buffer at an initial dilution of lOnM, and was diluted for 5 concentration gradients. 2 zero concentrations (i.e., equilibration buffer) and one repeat concentration (generally the lowest concentration repeat) were set. The antibody sample was diluted to the experimental working concentration with an equilibration buffer and sealed at 2-8° C.
Test [13] deals with T5, Recombinant human IL-17B, R&D, 8129-IL (human, UniProt Q9UHF5 21-180).
T5 sequence (looked up): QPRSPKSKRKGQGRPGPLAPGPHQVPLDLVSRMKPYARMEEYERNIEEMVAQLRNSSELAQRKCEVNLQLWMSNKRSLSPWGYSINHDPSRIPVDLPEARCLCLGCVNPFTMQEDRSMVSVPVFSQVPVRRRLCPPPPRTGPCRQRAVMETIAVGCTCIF
Kind of test: indirect ELISA, IL-17B coated at 1 µg/ml.

Test [14] deals with T2, Recombinant Mouse IL-17A, Sino …. Kind of test: indirect ELISA, mouse IL-17A coated. This is another data set of the same source.
Description: as §1
Test [15] has as its target T6, Recombinant human IL-17E, ABGENT, PBV10154r (human, UniProt Q9H293 33-177, limits assumed).
T6 construct: The catalogue number printed is the same as that printed for rat IL-17A; also called IL-25
T6 sequence (looked up): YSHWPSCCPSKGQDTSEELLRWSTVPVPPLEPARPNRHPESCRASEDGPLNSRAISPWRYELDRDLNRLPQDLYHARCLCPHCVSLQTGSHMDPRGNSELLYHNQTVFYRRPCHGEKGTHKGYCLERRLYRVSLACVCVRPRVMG
The experiment in a line: indirect ELISA, IL-17E coated at 1 µg/ml.
Description: as §1

The target of test [16] is T7, Recombinant human IL-17D, Sino Biological, 10076-H08S (human, UniProt Q8TAD2 16-202).
T7 sequence (looked up): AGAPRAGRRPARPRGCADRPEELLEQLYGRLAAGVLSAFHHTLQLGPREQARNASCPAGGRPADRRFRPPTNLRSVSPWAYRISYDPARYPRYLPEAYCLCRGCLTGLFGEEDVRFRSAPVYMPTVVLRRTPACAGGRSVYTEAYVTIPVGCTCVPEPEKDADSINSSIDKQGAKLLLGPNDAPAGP
Kind of test: indirect ELISA, IL-17D coated at 1 µg/ml.
Description: as §1

T1 sequence (Q16552 24-155 limits assumed, form in doubt): as the sequence (F6T3G5 entry or part of it) above, with A3T, T17N, V77I, R104P counted along it

B1: Chimeric antibody (mouse 7D6/5H8 VH and VL on human IgG1 and k constant regions) (antibody, V domains shown)
VH: QIQLVQSGPELKKPGETVKISCKASEYIFTNYGMNWVKEAPGKAFKWMGWIDTNTGEPTYAEDFKGRFAFSLDSSATSAFLQISNLKDDDTGTYFCANYGWGYFDYWGQGTTLTVSS
VL: DVVMTQTPLSLPVSLRDQASISCISSQSLVHSNGYTYLHWYLQKPGQSPKLLIYKVSNRFSGVPDRFSGSGSGTDFTLKISRVEAADLGVYFCSQSTHVPYTFGGGTKLEIK
notes: Human IgG1 heavy chain constant region and human kappa light chain constant region; Expressed in CHO-K1 cells
The EC50 is the concentration at which the effect is half-maximal. On to B1, for which the EC50 was 0.0386 µg/mL in test [1] and 0.0392 µg/mL in [2].

B2: mouse anti-human IL-17A monoclonal antibody of hybridoma 7D6/5H8 (antibody, V domains shown)
VH: B1 VH
VL: B1 VL
notes: Mouse antibody from hybridoma supernatant; also called original murine antibody; IL17-HC1 / IL17-LC1
Turning to B2, in test [3], the concentration giving a half-maximal response (EC50) came to 0.194 µg/mL.

B3: humanized anti-IL-17A antibody HB0017 (antibody, human IgG1, V domains shown)
VH: QVQLVQSGSELKKPGASVKVSCKASEYIFTNYGMNWVKQAPGQGFEWMGWIDTNTGEPTYAQGFTGRFVFSLDTSVSTAYLQISSLKAEDTATYYCANYGWGYFDYWGQGTTVTVSS
VL: DVVMTQTPPSLPVNPGEPASISCRSSQSLVHSNGYTYLHWYLQKPGQSPQLLIYKVSNHLSGVPDRFSGSGSGTDFTLKISWVEAEDVGVYFCSQSTHVPYTFGGGTKLEIK
notes: also called HB0017 antibody; HBH17 antibody
A word on the Kd: it is the equilibrium constant for the complex coming apart. For the molecule B3, the EC50 was found to be 0.088 µg/mL in [4]; 0.0154 µg/mL in [5]; 0.0154 µg/mL in test [6]; 0.24 µg/mL in [9]; 0.0154 µg/mL in [11]; 0.075 µg/mL in test [14]. In [7], the “improvement of EC50 against the chimeric antibody” value was approximately 150%. Moreover, in test [7], the “improvement of EC50 against the original murine antibody” value was approximately 11.6 times. In test [8], the “biological activity (IL-6 release by HT1080 cells) against the positive control antibody” value is approximately 6 fold. Also, the “IC50 of IL-6 release by HT1080 cells stimulated with IL-17A and TNFα” value in [10] turned out to be 0.09 µg/mL. Also, the Kd in test [12] turned out to be 0.0198 nM. Further, the binding result in test [13], in test [15] and in test [16] was “no binding” throughout.

The record behind these values is US20200071394A1 (HUABO BIOPHARM SHANGHAI, published 2020).
